Data from the supplement of paper PMC9170038.

Tested on: MS2 coat protein
Assay: apparent KD of MS2 coat protein; designed switch direction (-1 OFF switch, 1 ON switch): 1; higher = weaker reporter binding
Method in brief: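 Transcription of designed RNA switches on Illumina chips was done by stalled E. coli RNA polymerase. SNAP-549-labelled MS2 coat protein was then titrated in doubling steps from 0.7 or 1.5 nM to 3 µM, with steps of 0.8–1.5 h at the lowest and 10–20 min at the highest concentration. The per-design median over clusters of curve-fitted normalised fluorescence is reported as apparent KD.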

[1] = input ligand: microRNA oligo, concentration not stated
[2] = Eterna round: R95, input ligand: FMN 200 uM
[3] = Eterna round: R95, input ligand: microRNA oligo, concentration not stated
[4] = Eterna round: R95, input ligand: none

| Sequence | apparent KD of MS2 coat protein (input ligand: FMN 200 uM) [nM] | apparent KD of MS2 coat protein [1] [nM] | apparent KD of MS2 coat protein (input ligand: none) [nM] | apparent KD of MS2 coat protein [2] [nM] | apparent KD of MS2 coat protein [3] [nM] | apparent KD of MS2 coat protein [4] [nM] |
| --- | --- | --- | --- | --- | --- | --- |
| GACCGCGAGGAAGGAUAUGGAGCCUUAUUGGCUCCAGAAGGUCCAUAAAGGACAUGAGGAUCACCCAUGUGGUGUGAAGCGGUC [Fiskers NG1ss - 18] (Eterna round: R96, puzzle: Same State NG 1) | 65.5 | 407 | 627 |  |  |  |
| GAGAGACGAUUAGGAUAUACGGUGAUAAUGAUAGUAGAAGGAAUUGACAUGAGGAUCACCCAUGUAGGAAUAAUCCAGAGAGAG [Parity 26 - Jieux - Same State NG 1] (Eterna round: R96, puzzle: Same State NG 1) | 81.2 | 93.2 | 86.8 |  |  |  |
| GAGAGAUGGUUAGGAUAUUCGGUGAUAAUGAUAGAAGAAGGAACUGACAUGAGGAUCACCCAUGUGGGAAUAAUCCAGAGAGAG [Parity 20 - Jieux - Same State NG 1] (Eterna round: R96, puzzle: Same State NG 1) | 103 | 85 | 107 |  |  |  |
| GAGCCAGUCCGAGGAUAUUCAUAUAAAUUAAAUACAUGAGGAUCACCCAUGUAGGCGGAGCCUUGGGAGAAGGCGGACUGGCUC [Xeonanisa>>5] (Eterna round: R96, puzzle: Same State NG 2) | 22.7 | 35.9 | 58.4 |  |  |  |
| GAGCCAGUCCGAGGAUAUUCAUAUUACAUGAGGAUCACCCAUGUAGGCUCAGAAAAGGAGCCUUGGGAGAAGGCGGACUGGCUC [Xeonanisa<<3] (Eterna round: R96, puzzle: Same State NG 2) | 13.4 | 153 | 217 |  |  |  |
| GAGGGACAGACCAACAUGAGGAUCACCCAUGUCCUCGCAGGUCAGGAUAUUAUGAGGAUCACCCGUGAGAAGGGACGGUGAACC (Eterna round: R96, puzzle: Same State NG 3) | 606 | 468 | 488 |  |  |  |
| GAGGGACGGACGAACAUGAGGAUCACCCAUGUCCUCGGAGGUCAGGAUAUCCGGAGGUAGCCGAAGGAGAAGGGACGGUGAACC [AK SSNG3-V2-31.1] (Eterna round: R96, puzzle: Same State NG 3) | 104 | 51.5 | 85.7 |  |  |  |
| GAGGGCGAAAGCAACAUGAGGAUCACCCAUGUUGUCGGAGGGCAGGAUAUCCGGCGAAAGCAGAAGGAGAAGGGUCGAAAAGAA [AK SSNG3-V2-39] (Eterna round: R96, puzzle: Same State NG 3) | 15.5 | 13.1 | 21.4 |  |  |  |
| GAGUAGGAGUUACAGGAUAUAUGGAGGUGGACAUGAGGAUCACCCAUGUGAGAGAUGAGAGGAGGAUAGAAGGGUAAGGGAGUAA [JR_SS2_Sub029] (puzzle: Same State 2) |  |  |  | 189 | 153 | 486 |
| GAGUAGUUGGGAGGAUAUCGAUUGUUAUAGAAUCGAGAAGGUUUUAACAUGAGGAUCACCCAUGUAGGACUAUUCCUGUGUAUC [Parity 73 - Jieux - Same State NG 1] (Eterna round: R96, puzzle: Same State NG 1) | 127 | 68.5 | 107 |  |  |  |
| GAGUGGAGGAGAGGAUAUACAAUGAUAAUCACAGUAGAAGGUUCUAACAUGAGGAUCACCCAUGUAGGACUAUACCUGAGAGAA [Parity 48 - Jieux - Same State NG 1] (Eterna round: R96, puzzle: Same State NG 1) | 12.7 | 9.96 | 16 |  |  |  |
| GAGUGGAGGAGAGGAUAUACAUUGAUAAUCACUGUAGAAGGUUCUAACAUGAGGAUCACCCAUGUAGGACUAUUCCUGAGAGUU [Parity 52 - Jieux - Same State NG 1] (Eterna round: R96, puzzle: Same State NG 1) | 8.87 | 10.1 | 12.5 |  |  |  |
| GAGUGGCGAUUAGGAUAUACAGUGAUAAUGAUAGUAGAAGGAAUUGACAUGAGGAUCACCCAUGUAGGACUAAUCCAGAGAGAG [Parity 30 - Jieux - Same State NG 1] (Eterna round: R96, puzzle: Same State NG 1) |  | 57 |  |  |  |  |
| GAGUUACAUGAGGAUCACCCAUGUGGUUGUGGAUAAGGAUAUAUGGUAGGAGGAGGAAUGAUAGAAGGUAUUAGGG [JR_SS1_Sub065] (puzzle: Same State 1) |  |  |  |  | 52.9 |  |
| GCACUCCAAGGAGCUGCGACAUGAGGAUCACCCAUGUAAUCACAGGAUAUGCGAUUCCGAAUUUUGCAGAAGGGUGAUAAGAAC [Ratele] (Eterna round: R96, puzzle: Same State NG 3) | 139 | 18 | 106 |  |  |  |
| GCAGAACAUGAGGAUCACCCAUGUCUCAAAUAUUGAGGAUAUGGACACGGUAUAUCCGAACCAGAAGGCAAACUGC [SS1 Teenbexe 19] (puzzle: Same State 1) |  |  |  | 55.8 | 74.5 | 64 |
| GCAGAACAUGAGGAUCACCCAUGUCUCUAAUAUUGAGGAUAUGGGCACGGUAUAUCCGAACCAGAAGGCGAACUGC [SS1 Teenbexe 16] (puzzle: Same State 1) |  |  |  | 420 | 322 | 431 |
| GCCAACGCAUGAGGAUAUGGCACCUUAUUGGUGCCAGAAGGUAUGUGUAUUCACAUGAGGAUCACCCAUGUAUUAUAGUUGGCA [Fiskers NG1ss - 17] (Eterna round: R96, puzzle: Same State NG 1) | 53.7 | 146 | 183 |  |  |  |
| GCCAUCGCAUGAGGAUAUGGCACCGUUUCGGUGCCAGAAGGCAUGUCGAAUGACAUGAGGAUCACCCAUGUAGUAUAGAUGGCA [JL Fiskers NG1ss - 33 mod 10] (Eterna round: R96, puzzle: Same State NG 1) | 59 | 377 | 851 |  |  |  |
| GCCAUCGUAUGAGGAUAUGGCACCGAAACGGUGCCAGAAGGCAUGUCAAUUGACAUGAGGAUCACCCAUGUAUUAUCGAUGGCA [Mat - Same State NG 1 - JL mod - D89] (Eterna round: R96, puzzle: Same State NG 1) |  | 454 |  |  |  |  |
| GCCAUCGUGUGAGGAUAUGGCACCGAAACGGUGCCAGAAGGCAUGUCAAUUGACAUGAGGAUCACCCAUGUAUUAGCGAUGGCA [Mat - Same State NG 1 - JL mod - D86] (Eterna round: R96, puzzle: Same State NG 1) | 181 | 994 | 1360 |  |  |  |
| GCCGCGUUUCGCGCCUACAUGAGGAUCACCCAUGUUUGUAGGCAGGAUAUCGUCCGCUCUGCGGGCGAGAAGGGCUGUUGUGGU [salish99_SSNG3_R04_024] (Eterna round: R96, puzzle: Same State NG 3) | 65.6 | 58.1 | 86.7 |  |  |  |
| GCCGCGUUUCGCGCCUACAUGAGGAUCACCCAUGUUUGUAGGCAGGAUAUCGUUUGCUUUGCAAACGAGAAGGGCUGUUGUGGC [salish99_SSNG3_R04_012] (Eterna round: R96, puzzle: Same State NG 3) | 29.9 | 47.2 | 50.2 |  |  |  |
| GCCGGCUAAUGAGGAUAUGGCACCUUAUUGGUGCCAGAAGGCAUGUCAAUUGACAUGAGGAUCACCCAUGUAUUAUAGUUGGCG [salish99_SSNG1_r04_603] (Eterna round: R96, puzzle: Same State NG 1) |  | 211 |  |  |  |  |
| GCCGGCUGGUGAGGAUAUGGCGCCUUGUUGGUGCCAGAAGGCAUGUCUUUUGACAUGAGGAUCACCCAUGUGUUGUCGUUGGCG [salish99_SSNG1_r04_613] (Eterna round: R96, puzzle: Same State NG 1) | 221 | 72.3 | 47.8 |  |  |  |
| GCCGUAAACAUGAGGAUCACCCAUGUAAACGCGAGAGUGGAUGAGGAUAUCGAUGGGUUUCCCGUCGAGAAGGCGUGGGUCGGC [JL SSNG3 3.99] (Eterna round: R96, puzzle: Same State NG 3) | 36.2 | 31.8 | 46.1 |  |  |  |
| GCGAGCGUACUUGCUACAUGAGGAUCACCCAUGUCUGUUGGACAGGAUAUGGUACCGUUUCGGUACCAGAAGGGUUCAUCAUGU [JL SSNG3 3.74] (Eterna round: R96, puzzle: Same State NG 3) | 439 | 74 | 262 |  |  |  |
| GCGAGCGUACUUGCUACAUGAGGAUCACCCAUGUUCAUUGGACAGGAUAUGGUACCGUUUCGGUACCAGAAGGGUUCAUCAUGU [JL SSNG3 3.73] (Eterna round: R96, puzzle: Same State NG 3) | 1190 | 26.6 | 585 |  |  |  |
| GCGAGCGUACUUGCUACAUGAGGAUCACCCAUGUUCGUUGGACAGGAUAUGGUACCGUUUCGGUACCAGAAGGGUUCAUCAUGU [JL SSNG3 3.75] (Eterna round: R96, puzzle: Same State NG 3) | 356 | 188 | 278 |  |  |  |
| GCGGUCUGACAUGAGGAUCACCCAUGUGGAAUAAAUACGGGUUAGGAUAUCUUGAGGAUCACCCAAGAGAAGGGAUGGACCGCU (Eterna round: R96, puzzle: Same State NG 3) | 32.1 | 22.8 | 38.4 |  |  |  |
